US20170101466A1 (published 2017)

T1: mouse APRIL (mouse, UniProt Q9D777 96-241, limits assumed)
T1 construct: Bought recombinant protein; also called mAPRIL
T1 sequence (looked up): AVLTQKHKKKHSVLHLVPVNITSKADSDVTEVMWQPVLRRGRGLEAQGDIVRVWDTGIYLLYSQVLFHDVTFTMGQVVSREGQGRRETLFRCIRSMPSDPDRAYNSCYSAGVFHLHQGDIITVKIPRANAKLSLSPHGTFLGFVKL

T2: human APRIL (human, UniProt O75888 105-250, limits assumed)
T2 construct: Bought recombinant protein; also called hAPRIL
T2 sequence (looked up): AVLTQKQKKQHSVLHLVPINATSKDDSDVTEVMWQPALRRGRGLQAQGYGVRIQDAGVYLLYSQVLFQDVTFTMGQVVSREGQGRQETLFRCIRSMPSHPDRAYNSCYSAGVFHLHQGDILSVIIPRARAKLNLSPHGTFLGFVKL

B1: belimumab (antibody, V domains shown)
VH: QVQLQQSGAEVKKPGSSVRVSCKASGGTFNNNAINWVRQAPGQGLEWMGGIIPMFGTAKYSQNFQGRVAITADESTGTASMELSSLRSEDTAVYYCARSRDLLLFPHHALSPWGRGTMVTVSS
VL: SSELTQDPAVSVALGQTVRVTCQGDSLRSYYASWYQQKPGQAPVLVIYGKNNRPSGIPDRFSGSSSGNTASLTITGAQAEDEADYYCSSRDSSGNHWVFGGGTELTVLG
B2: 6C10 IgG1 F243A/V264A double mutein expressed in Pichia pastoris (antibody, V domains shown)
VH: EVQLVQSGAEVKKPGASVKVSCKASGYTFTSYGISWVRQAPGQGLEWMGWISAYNGNTNYAQKLQGRVTMTTDTSTSTAYMELRSLRSDDTAVYYCARTYYDILTGYYYYYGMDVWGQGTTVTVSS
VL: EIVLTQSPGTLSLSPGERAMLSCRASQSVGNYLAWYQQKPGQAPRLLIYDASNRATGIPARFSGSGSGTDFTLTINSLEPEDFAVYYCQQRSNWPLTFGGGTKVEIKR
notes: IgG1 F243A/V264A (EU) double mutein, alpha-2,6-sialylated, from glycoengineered Pichia pastoris; also called 6C10-DM; 6C10-DM (Pichia)
B3: 8D12 IgG1 F243A/V264A double mutein expressed in Pichia pastoris (antibody, V domains shown)
VH: QVQLVQSGAEVKKPGASVKVSCKASGYTFTSYAMHWVRQAPGQRLEWMGWINAGNGNTKYSQKFQGRVTITRDTSASTAYMELSSLRSEDTAVYYCARAYYDILTGYSVYGMDVWGQGTTVTVSS
VL: EIVLTQSPATLSLSPGERATLSCRANESVGNYLAWYQQKPGQAPRLLIYGASRRATGIPDRFSGSGSGTDFTLTISRLEPEDFAVYYCQQYGSSLLTFGGGTKVEIKR
notes: IgG1 F243A/V264A (EU) double mutein, alpha-2,6-sialylated, from glycoengineered Pichia pastoris; also called 8D12-DM; 8D12-DM (Pichia)
B4: 6C10 IgG expressed in HEK293 cells (antibody, V domains shown)
VH: B2 VH
VL: B2 VL
notes: IgG from HEK293-FreeStyle cells; also called 6C10 (293)
B5: 8A12 IgG expressed in HEK293 cells (antibody, V domains shown)
VH: QVQLVQSGGGLVQPGGSLRLSCAASGFTFSSYAMSWVRQAPGKGLEWVSAISGSGGSTYYADSVKGRFTISRDNSKNTLYLQMNSLRAEDTAVYYCAREGQGYDILTGYYTRGYYFDYWGQGTLVTVSS
VL: QSALTQPASVSGSPGQSITISCTGTSSDVGGYNYVSWYQQLPGKAPKLMIYEVSKRPSGVPDRFSGSKSGNTASLTISGLQAEDEADYYCSSYAGSSSWVFGGGTKLTVLG
notes: IgG from HEK293-FreeStyle cells
B6: 8D12 IgG expressed in HEK293 cells (antibody, V domains shown)
VH: B3 VH
VL: B3 VL
notes: IgG from HEK293-FreeStyle cells; also called 8D12 (293)
B7: 9F8 IgG expressed in HEK293 cells (antibody, V domains shown)
VH: QVQLQQSGAEVKKPGASVKVSCKASGYTFTSYYMHWVRQAPGQGLEWMGWINAGNGNTKYSQKFQGRVTITRDTSASTAYMELSSLRSEDTAVYYCARDNLSYDILTGYSFGGWFDPWGQGTLVTVSS
VL: QSALTQPASVSGSPGQSITISCTGTSSDIGRYNYVSWYQQRPGRAPKVIIYDVSSRPSGVSKRFSASKSGNTASLTISGLQAEDEAVYYCSSYTRITTLYVFGPGTKVTVLG
notes: as for B5

Legend:
soluble mouse BLyS [1] = molecular target: T3, soluble mouse BLyS (mouse, UniProt Q9WU72 127-309); assay: DELFIA competition, Eu-mBLyS binding to coated BR3
T3 construct: europium-labelled in DELFIA; also called mBLyS; mouse BAFF (BLyS)
Experimental: (§1) After 5× washing with 200 ul/well of DELFIA 1× wash solution (PE, Cat #4010-0010), plates were blocked with 3% BSA purified from trace heavy metal amounts (PE, Cat #CR84-100) for 3 hours with shaking at room temperature. Plates were washed again five times at 200 μl/well with DELFIA wash solution.
(§2) The final 3 wells across the plate served as controls (2 wells contained 2,000 pM mAbs for negative and background controls while the third contained no mAbs for positive control). […] After 18-24 hrs at 4° C., plates were read on PE EnVision plate reader with laser excitation, LANCE/DELFIA top mirror, and emission filter Eu-615 with a delay of 400 μs. Data were fit to four parameter (variable slope) inhibition dose response curve using GraphPad PRISM 5.0 software.

soluble mouse BLyS [2] = molecular target: T3, soluble mouse BLyS; assay: Biacore T100, binder captured by anti-human Fc, BLyS injected, 1:1 model
Experimental: (§3) A Series S CM5 Chip (GE Healthcare) was amine coupled with an anti-human Fc capturing antibody (GE Healthcare Human Fc Kit) to >10,000 RUs. Sample antibodies were diluted in 1×HBS-EP+ running buffer to 0.15 ug/mL and injected for 45 seconds at 10 uL/min. […] Biacore Evaluation software was used to fit the data to a 1:1 Binding Model.

soluble human BLyS [3] = molecular target: T4, soluble human BLyS (human, UniProt Q9Y275 134-285); assay: as above
T4 construct: also called hBLyS; human BAFF (BLyS)
Experimental: as §3

soluble human BLyS [4] = molecular target: T4, soluble human BLyS; assay: cell-based or functional assay
soluble mouse BLyS [5] = molecular target: T3, soluble mouse BLyS; assay: Biacore, antibody captured on chip, BLyS injected, 1:1 model, 25 C
Experimental: (§4) Recombinant protein NG (Thermo Scientific, Cat #21186) was diluted to 100 μg/ml in 10 mM sodium acetate pH 4.0 and then immobilized on the surface of a pre-activated Series S CM5 Biacore chip (GE, Cat #BR-1005-34) using amine coupling. […] After the dissociation period, the chip was regenerated back to baseline by injecting 10 mM glycine pH 1.5 for 120 seconds over the four flow cells. […] The entire data set was fit to a 1:1 interaction model to give kₒₙ, koff, and Kd values. The assay was run at 25° C. in 1× biacore running buffer HBS-EP+ (GE, Cat #BR-1006-69).

soluble human BLyS [6] = molecular target: T4, soluble human BLyS; assay: as above
Experimental: as §4

soluble mouse BLyS [7] = molecular target: T3, soluble mouse BLyS; assay: DELFIA competition, Eu-mBLyS binding to coated BCMA
Experimental: as §1, §2

soluble human BLyS [8] = molecular target: T4, soluble human BLyS; assay: DELFIA competition, Eu-hBLyS binding to coated BR3
Experimental: as §1, §2

soluble human BLyS [9] = molecular target: T4, soluble human BLyS; assay: DELFIA competition, Eu-hBLyS binding to coated BCMA
Experimental: as §1, §2

soluble human BLyS [10] = molecular target: T4, soluble human BLyS; assay: DELFIA competition, Eu-hBLyS binding to coated TACI
Experimental: as §1, §2

soluble mouse BLyS [11] = molecular target: T3, soluble mouse BLyS; assay: DELFIA competition, Eu-mBLyS binding to coated TACI
Experimental: as §1, §2

mouse APRIL = molecular target: T1, mouse APRIL; assay: Biacore, antibody captured, APRIL injected
Experimental: (§5) Recombinant protein NG (Thermo Scientific, Cat #21186) was diluted to 100 μg/ml in 10 mM Sodium Acetate pH 4.0 and then immobilized on the surface of a pre-activated Series S CM4 Biacore chip (GE, Cat #BR-1005-34) using amine coupling. […] Binding response was measured as the difference in total RU increase during 300 second APRIL injection of each individual flow cell and the reference flow cell (e.g., Flow cell 2-1).

human APRIL = molecular target: T2, human APRIL; assay: Biacore, antibody captured, APRIL injected
Experimental: as §5

soluble human BLyS [12] = molecular target: T4, soluble human BLyS; assay: ELISA, soluble hBLyS
soluble mouse BLyS [13] = molecular target: T3, soluble mouse BLyS; assay: Biacore
soluble human BLyS [14] = molecular target: T4, soluble human BLyS; assay: Biacore
soluble cynomolgus BLyS = molecular target: T5, soluble cynomolgus BLyS (cynomolgus, UniProt A0A2K5V2X4 134-285); assay: ELISA, soluble cyBLyS
T5 construct: Soluble form; also called cyBLyS; Soluble cyBLyS

soluble human BLyS [15] = molecular target: T4, soluble human BLyS; assay: blocking of biotinylated soluble hBLyS binding to immobilized mBR3
soluble mouse BLyS [16] = molecular target: T3, soluble mouse BLyS; assay: ELISA, soluble mBLyS

Binder	IC50 (soluble mouse BLyS [1]) [nM]	Kd (soluble mouse BLyS [2]) [nM]	koff (soluble mouse BLyS [2]) [s⁻¹]	kon (soluble mouse BLyS [2]) [M⁻¹ s⁻¹]	Kd (soluble human BLyS [3]) [nM]	koff (soluble human BLyS [3]) [s⁻¹]	kon (soluble human BLyS [3]) [M⁻¹ s⁻¹]	IC50 (soluble mouse BLyS [7]) [nM]	IC50 (soluble human BLyS [8]) [nM]	IC50 (soluble human BLyS [9]) [nM]	IC50 (soluble human BLyS [10]) [nM]	IC50 (soluble mouse BLyS [11]) [nM]	binding result (mouse APRIL)	binding result (human APRIL)	IC50 (soluble human BLyS [12]) [nM]	Kd (soluble mouse BLyS [13]) [nM]	Kd (soluble human BLyS [14]) [nM]	IC50 (soluble cynomolgus BLyS) [nM]	IC50 (soluble human BLyS [15]) [nM]	IC50 (soluble mouse BLyS [16]) [nM]	further results
B1	> 2	0.0635	0.000125	1.98e+06	0.167	8.55e-05	506000														IC50 hBLyS stimulated, mouse splenic B-cell proliferation (soluble human BLyS [4]): 0.018 µg/mL
B2	> 2	0.232	0.000224	967000	0.068	2.5e-05	368000	> 2	0.0873	0.017	0.00074	0.445	no binding (tested: 50 nM)	no binding (tested: 50 nM)							Kd (soluble mouse BLyS [5]): 0.234 nM; koff (soluble mouse BLyS [5]): 7.9e-05 s⁻¹; kon (soluble mouse BLyS [5]): 330000 M⁻¹ s⁻¹; Kd (soluble human BLyS [6]): 0.421 nM; koff (soluble human BLyS [6]): 5.5e-05 s⁻¹; kon (soluble human BLyS [6]): 130000 M⁻¹ s⁻¹
B3	> 2	0.134	0.000196	1.46e+06	0.049	5.4e-05	1.11e+06	> 2	0.101	1.28	< 0.0003	> 2	no binding (tested: 50 nM)	no binding (tested: 50 nM)							Kd (soluble mouse BLyS [5]): 0.099 nM; koff (soluble mouse BLyS [5]): 5.7e-05 s⁻¹; kon (soluble mouse BLyS [5]): 580000 M⁻¹ s⁻¹; Kd (soluble human BLyS [6]): 0.138 nM; koff (soluble human BLyS [6]): 3.5e-05 s⁻¹; kon (soluble human BLyS [6]): 260000 M⁻¹ s⁻¹
B4	0.784							0.098	0.121	0.0106	0.00067	0.679	no binding (tested: 50 nM)	no binding (tested: 50 nM)	0.12	0.0216	0.51	0.1	0.33	0.05	Kd (soluble mouse BLyS [5]): 0.334 nM; koff (soluble mouse BLyS [5]): 6.7e-05 s⁻¹; kon (soluble mouse BLyS [5]): 200000 M⁻¹ s⁻¹; Kd (soluble human BLyS [6]): 0.434 nM; koff (soluble human BLyS [6]): 5e-05 s⁻¹; kon (soluble human BLyS [6]): 120000 M⁻¹ s⁻¹
B5															16	0.0224	4.26	0.32	2.97	0.05	
B6	> 2							> 2	0.0622	0.63	< 0.0003	> 2	no binding (tested: 50 nM)	no binding (tested: 50 nM)	0.13	0.028	0.66	0.08	10	0.16	
B7															0.15	0.0456	1.1	0.07	5.31	0.07	
